The text below walks through data of patent US20140134737, “Alternative Splicing Modulators and Splice Variants and Their Use in the Control and Detection of Pluripotency and Differentiation” (Governing Council of the University of Toronto, published 2014).

Holding throughout (conditions): tags: GST fusion; label: radiolabeled
The target of data set [1] is T1, FOXP1-ES forkhead domain (exon 18b) (Homo sapiens).
T1 chain: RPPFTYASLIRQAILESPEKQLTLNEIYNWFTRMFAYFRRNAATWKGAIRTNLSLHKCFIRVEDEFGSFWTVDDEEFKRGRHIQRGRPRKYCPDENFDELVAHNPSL
As to the kind of experiment: EMSA; no appreciable shift. How it is done: (§1) FIG. 2(C) is an Electrophoresis Mobility Shift Assay (EMSA) validating PBM-derived consensus DNA binding sites for FOXP1 and FOXP1-ES. Radiolabeled dsDNA probes containing two copies of GTAAACAA (top left panel), AATAAACA (top middle panel) or CGATACAA (top right panel), or two copies of mutant versions of these sequences GGACACAA (bottom left panel), AATGGACA (bottom middle panel) or CGCGACAT (bottom right panel) were incubated in the absence (lanes 1, 9 and 19) or in the presence of increasing amounts (0.2 to 3.2 pmol) of recombinant GST-FOXP1 or GST-FOXP1-ES proteins. Positions mutated in the probe sequences are underlined. Shifted protein-dsDNA complexes are indicated by arrows and free dsDNA probe is indicated by an asterisk.

The target in data set [2] is T2, FOXP1 forkhead domain (canonical, exon 18) (Homo sapiens, UniProt Q9H334 SEQ:465-555).
T2 sequence: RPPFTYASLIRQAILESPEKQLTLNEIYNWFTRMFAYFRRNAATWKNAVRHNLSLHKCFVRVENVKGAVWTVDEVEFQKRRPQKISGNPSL
As to the kind of experiment: EMSA; no appreciable shift. How it is done:
as §1

The target in data set [3] is T1, FOXP1-ES forkhead domain (exon 18b). As to the kind of experiment: EMSA; preferentially bound by FOXP1-ES. How it is done:
as §1

The target is the same in data set [4]. Briefly: EMSA; no appreciable shift. How it is done:
(§2) Radiolabeled dsDNA probes containing two copies of each 8-mer (top panels), or two copies of mutant versions of these sequences CCACTCAA, ATGCAGGA, CTATCCAA and AACCCCAA (bottom panels) were incubated in the absence (lanes 1, 10, 19 and 28) or in the presence of increasing amounts (0.2 to 3.2 pmol) of recombinant GST-FOXP1 or GST-FOXP1-ES proteins. Positions mutated in the probe sequences are underlined. Shifted protein-dsDNA complexes are indicated by arrows and free dsDNA probe is indicated by an asterisk.

For data set [5], the target named is T2, FOXP1 forkhead domain (canonical, exon …). Briefly: EMSA; no appreciable shift. How it is done: as §2
The source holds these as a separate data set.

B1: GGACACAA x2 mutant (dsDNA)
DNA 1: GGACACAACCGGACACAA
DNA 2: TTGTGTCCGGTTGTGTCC
On to B1, for which the binding result in data set [1] and in data set [2] was “no binding” throughout.

B2: AATGGACA x2 mutant (dsDNA)
DNA 1: AATGGACACCAATGGACA
DNA 2: TGTCCATTGGTGTCCATT
B2: the binding result in data set [1] and in data set [2] was “no binding” throughout.

B3: AATAAACA x2 probe (dsDNA)
DNA 1: AATAAACACCAATAAACA
DNA 2: TGTTTATTGGTGTTTATT
B3: in data set [3], the binding result was “binds”.

B4: ATGCAGGA x2 mutant (dsDNA)
DNA 1: ATGCAGGACCATGCAGGA
DNA 2: TCCTGCATGGTCCTGCAT
On to B4, for which the binding result in data set [4] and in data set [5] was “no binding” each time.

B5: CTATCCAA x2 mutant (dsDNA)
DNA 1: CTATCCAACCCTATCCAA
DNA 2: TTGGATAGGGTTGGATAG
For B5, the binding result in data set [4] and in data set [5] was “no binding” each time.

B6: CCACTCAA x2 mutant (dsDNA)
DNA 1: CCACTCAACCCCACTCAA
DNA 2: TTGAGTGGGGTTGAGTGG
B6: the binding result in data set [4] and in data set [5] was “no binding” each time.

B7: AACCCCAA x2 mutant (dsDNA)
DNA 1: AACCCCAACCAACCCCAA
DNA 2: TTGGGGTTGGTTGGGGTT
Turning to B7, the binding result in data set [4] and in data set [5] was “no binding” throughout.

B8: CGCGACAT x2 mutant (dsDNA)
DNA 1: CGCGACATCCCGCGACAT
DNA 2: ATGTCGCGGGATGTCGCG
As for B8, the binding result in data set [1] and in data set [2] was “no binding” in each case.
